Reference: patent US20030104532A1 (CHILDREN S MEDICAL CENTER, published 2003)

B1: Human recombinant VEGF165 (ligand, UniProt P15692-4 27-191, looked up)
chain: APMAEGGGQNHHEVVKFMDVYQRSYCHPIETLVDIFQEYPDEIEYIFKPSCVPLMRCGGCCNDEGLECVPTEESNITMQIMRIKPHQGQHIGEMSFLQHNKCECRPKKDRARQENPCGPCSERRKHLFVQDPQTCKCSCKNTDSRCKARQLELNERTCRCDKPRR
modifications: radio-iodinated (^125I, IODO-BEADS) in the binding and cross-linking experiments; coupled to Sepharose beads in the affinity purification
notes: mature
B2: Human recombinant VEGF121 (ligand, UniProt P15692-9 27-147, looked up)
chain: APMAEGGGQNHHEVVKFMDVYQRSYCHPIETLVDIFQEYPDEIEYIFKPSCVPLMRCGGCCNDEGLECVPTEESNITMQIMRIKPHQGQHIGEMSFLQHNKCECRPKKDRARQEKCDKPRR
modifications: radio-iodinated (^125I, IODO-BEADS) in the cross-linking experiments
notes: mature

Tests used:
[1] = target: T1, Human VEGF165R/NP-1 (neuropilin-1) (human, UniProt O14786 22-923); experiment: cell-based or functional assay
[2] = target: T1, Human VEGF165R/NP-1 (neuropilin-1); experiment: Scatchard analysis (LIGAND program) of ^125I-VEGF165 binding to PAE/NP-1 cells
Method: Scatchard Analysis of VEGF₁₆₅ Binding to VEGF₁₆₅R/NP-1.7A. Increasing amounts of ¹²⁵I-VEGF₁₆₅ (0.1-50 ng/ml) were added to subconfluent cultures of PAE cells transfected with human VEGF₁₆₅R/NP-1 cDNA (PAE/NP-1 cells) in 48 well dishes. Non-specific binding was determined by competition with a 200-fold excess of unlabeled VEGF₁₆₅. After binding, the cells were washed, lysed and the cell-associated radioactivity was determined using a y counter.
The specific activity ranged from 40,000-100,000 cpm/ng protein. […] VEGF binding was quantitated by measuring the cell-associated radioactivity in a y-counter (Beckman, Gamma 5500). The counts represent the average of three wells. All experiments were repeated at least three times and similar results were obtained.

[3] = target: T2, Human neuropilin-2 (NP-2) (human, UniProt O60462 21-931); experiment: expression cloning: one of the seven single clones positive for ^125I-VEGF165 binding to transfected COS-7 cells
T2 sequence: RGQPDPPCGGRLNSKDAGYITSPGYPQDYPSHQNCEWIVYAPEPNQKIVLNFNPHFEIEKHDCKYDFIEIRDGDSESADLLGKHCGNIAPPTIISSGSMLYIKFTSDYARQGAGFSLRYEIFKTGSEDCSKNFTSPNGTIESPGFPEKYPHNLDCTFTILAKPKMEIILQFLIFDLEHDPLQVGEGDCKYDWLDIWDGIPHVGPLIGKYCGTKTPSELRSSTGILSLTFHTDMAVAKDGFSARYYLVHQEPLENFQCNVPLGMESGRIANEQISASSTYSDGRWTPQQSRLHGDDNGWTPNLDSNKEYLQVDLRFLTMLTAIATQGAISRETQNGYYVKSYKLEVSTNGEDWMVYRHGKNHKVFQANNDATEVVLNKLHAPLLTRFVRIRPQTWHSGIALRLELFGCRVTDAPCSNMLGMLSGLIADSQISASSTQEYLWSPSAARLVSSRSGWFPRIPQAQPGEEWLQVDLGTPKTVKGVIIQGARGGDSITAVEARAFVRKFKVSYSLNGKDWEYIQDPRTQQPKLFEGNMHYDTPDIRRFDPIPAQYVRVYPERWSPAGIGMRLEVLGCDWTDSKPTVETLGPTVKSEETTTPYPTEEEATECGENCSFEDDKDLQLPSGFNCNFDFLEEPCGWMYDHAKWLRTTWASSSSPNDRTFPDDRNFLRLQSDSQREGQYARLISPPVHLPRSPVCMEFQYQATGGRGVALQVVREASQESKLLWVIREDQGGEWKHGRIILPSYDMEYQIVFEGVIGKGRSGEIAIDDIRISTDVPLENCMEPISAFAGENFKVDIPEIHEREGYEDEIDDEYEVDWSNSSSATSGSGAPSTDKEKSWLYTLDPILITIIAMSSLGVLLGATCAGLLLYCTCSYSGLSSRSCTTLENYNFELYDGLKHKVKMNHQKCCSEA
Method: The E. coli were sub-divided into 50 separate pools and plated onto 50 LB ampicillin dishes, with each pool representing approximately 100 clones. DNA made from these pools was transfected into COS-7 cells which were screened for ¹²⁵I-VEGF₁₆₅ binding as described above. […] Each pool was plated onto separate LB ampicillin dishes and DNA was prepared from 96 individual colonies and screened in a 96-well two dimensional grid for ¹²⁵I-VEGF₁₆₅ binding to tranfected COS-7 cells as described above. […] The seven positive plasmid clones were amplified and their DNA was analyzed by restriction enzyme digestion. […] One clone from each group was submitted for automated DNA sequencing.
E. coli transformed with the plasmid library were divided into pools.

[4] = target: T3, Neuropilin-1 on Dunning rat prostate carcinoma AT3.1 cells (rat, UniProt Q9QWJ9 22-922); experiment: ^125I-VEGF165 cross-linking to Dunning rat prostate carcinoma cells
T3 construct: whole, on cells; also called VEGF165R/NP-1 (AT3.1 cells)

[5] = target: T1, Human VEGF165R/NP-1 (neuropilin-1); experiment: ^125I-VEGF121 binding and chemical cross-linking to PAE/NP-1 cells, SDS-PAGE, autoradiography
Method: FIG. 8. […] The binding was carried out in the presence of 1 μg/ml heparin. […] The cells were lysed and proteins were resolved by 6% SDS-PAGE. The polyacrylamide gel was dried and exposed to X-ray film.

| Binder | 231 breast carcinoma cell motility (Boyden chamber motility assay) [1] [fold] | Kd [2] [pM] | binding result [3] | binding result [4] | binding result [5] |
| --- | --- | --- | --- | --- | --- |
| B1 | 2 | ~320 | binds | binds | – |
| B2 | – | – | – | – | no binding (tested: 10 ng/ml) |
